Measured values taken from the supplement of paper PMC10724198.
± gives the standard deviation of the averaged measurements.

Legend:
Saccharomyces cerevisiae [1] = experiment: protein stability index of tFT-peptide fusion (C-terminal peptide) (PSI (0-1 scale)); higher = more stable (slower turnover); conditions: genetic background: wild type; temperature: 30 C
Saccharomyces cerevisiae [2] = experiment: as above
Experimental: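 MPS profiling in S. cerevisiae of the tFT-X12 degron library: putative degron peptides plus stable controls, 12 aa, fused to the C-terminus of a sfGFP-mCherry timer. Cells are FACS-sorted into 8 mCherry/sfGFP bins and deep-sequenced. PSI runs from 0 (unstable) to 1 (stable). Backgrounds are wild type, das1Δ and doa10Δ at 30 °C, and wild type, das1Δ, cdc34-1 and cdc53-1 at 37 °C; 2-3 technical replicates each.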

[3] = genetic background: cdc34-1, temperature: 37 C
[4] = genetic background: cdc53-1, temperature: 37 C
[5] = genetic background: das1 deletion, temperature: 30 C
[6] = genetic background: das1 deletion, temperature: 37 C
[7] = genetic background: doa10 deletion, temperature: 30 C
[8] = genetic background: wild type, temperature: 30 C
[9] = genetic background: wild type, temperature: 37 C
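Also: PSI is a weighted mean of sequencing reads over stability bins, variants kept only with over 10 reads, mCherry proximal and sfGFP distal, peptide attached via GGGS linker.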

Sequence	protein stability index (Saccharomyces cerevisiae [1])	protein stability index (Saccharomyces cerevisiae [2]; [3])	protein stability index (Saccharomyces cerevisiae [2]; [4])	protein stability index (Saccharomyces cerevisiae [2]; [5])	protein stability index (Saccharomyces cerevisiae [2]; [6])	protein stability index (Saccharomyces cerevisiae [2]; [7])	protein stability index (Saccharomyces cerevisiae [2]; [8])	protein stability index (Saccharomyces cerevisiae [2]; [9])
CVLSWSLFVVVW	0.044 ± 0.026	0.0234 ± 0.0015	0.028 ± 0.0018	0.0273 ± 0.0091	0.0441 ± 0.011	0.0209 ± 0.0017	0.0168 ± 0.0058	0.0346 ± 0.015
CVVFLWCGGCWV	0.503 ± 0.076	0.475 ± 0.013	0.584 ± 0.0059	0.346 ± 0.044	0.725 ± 0.085	0.344 ± 0.023	0.331 ± 0.03	0.734 ± 0.041
CVVLCLFCWCML	0.347 ± 0.048	0.358 ± 0.004	0.4266 ± 0.0042	0.314 ± 0.019	0.451 ± 0.007	0.32968 ± 0.00016	0.305 ± 0.021	0.425 ± 0.0082
CYCSIGCLIIFS	0.378 ± 0.074	0.2261 ± 0.0021	0.374 ± 0.023	0.238 ± 0.033	0.446 ± 0.0093	0.206 ± 0.0053	0.22 ± 0.023	0.4089 ± 0.003
DALHPCIIYLTC	0.341 ± 0.013	0.594 ± 0.049	0.565 ± 0.015	0.328 ± 0.035	0.609 ± 0.00096	0.217 ± 0.0055	0.254 ± 0.022	0.466 ± 0.013
DECQLCNRDWRG	0.7185 ± 0.0063	0.689 ± 0.069	0.739 ± 0.013	0.634 ± 0.015	0.726 ± 0.019	0.644 ± 0.032	0.657 ± 0.042	0.733 ± 0.018
DKKPMKKILLCI	0.151 ± 0.029	0.451 ± 0.0075	0.565 ± 0.068	0.494 ± 0.025	0.6477 ± 0.0033	0.0933 ± 0.02	0.0973 ± 0.0084	0.104 ± 0.0016
DRLRSGLSLLLA	0.4925 ± 0.0035	0.64 ± 0.014	0.6817 ± 0.0049	0.556 ± 0.018	0.669 ± 0.0078	0.365 ± 0.015	0.411 ± 0.02	0.583 ± 0.0065
DRQMRCVHIHYL	0.412 ± 0.021	0.647 ± 0.041	0.715 ± 0.028	0.646 ± 0.029	0.697 ± 0.011	0.275 ± 0.016	0.301 ± 0.015	0.532 ± 0.0088
DRYSFYGYVVVL	0.261 ± 0.0095	0.587 ± 0.021	0.632 ± 0.05	0.512 ± 0.042	0.66198 ± 4.4e-05	0.1728 ± 0.0011	0.186 ± 0.02	0.291 ± 0.041
DVCGVRYVLFVL	0.502 ± 0.013	0.57 ± 0.014	0.647 ± 0.018	0.49 ± 0.025	0.655 ± 0.024	0.416 ± 0.0086	0.428 ± 0.026	0.597 ± 0.026
DVRLVLCEMIKG	0.513 ± 0.036	0.587 ± 0.048	0.6123 ± 0.0027	0.414 ± 0.028	0.624 ± 0.0012	0.394 ± 0.021	0.426 ± 0.021	0.601 ± 0.0076
DVYIVLFIIKHG	0.241 ± 0.055	0.309 ± 0.052	0.395 ± 0.022	0.261 ± 0.052	0.4415 ± 0.0025	0.173 ± 0.0021	0.175 ± 0.034	0.3 ± 0.0092
EFFTLYDLVRFI	0.38 ± 0.025	0.742 ± 0.042	0.79 ± 0.05	0.669 ± 0.048	0.791 ± 0.05	0.192 ± 0.00011	0.232 ± 0.013	0.434 ± 0.04
ELTYVYRTALIA	0.183 ± 0.045	0.152 ± 0.004	0.157 ± 0.0057	0.204 ± 0.016	0.276 ± 0.0057	0.0966 ± 0.011	0.105 ± 0.014	0.0995 ± 0.017
EMSIISVLRVIS	0.369 ± 0.035	0.61 ± 0.013	0.641 ± 0.017	0.489 ± 0.02	0.651 ± 0.021	0.181 ± 0.011	0.218 ± 0.034	0.395 ± 0.015
ERFILVGMFGSW	0.532 ± 0.048	0.702 ± 0.036	0.717 ± 0.015	0.519 ± 0.017	0.708 ± 0.0095	0.532 ± 0.026	0.529 ± 0.027	0.701 ± 0.022
ERWSPWIVVFTN	0.278 ± 0.029	0.464 ± 0.015	0.505 ± 0.012	0.421 ± 0.034	0.612 ± 0.024	0.173 ± 0.019	0.185 ± 0.022	0.278 ± 0.029
ESVPLLIVLHLV	0.0881 ± 0.034	0.304 ± 0.058	0.62 ± 0.085	0.415 ± 0.032	0.5979 ± 0.0039	0.0857 ± 0.02	0.0885 ± 0.0083	0.07176 ± 0.00058
ETVHVISLIAIG	0.47 ± 0.037	0.428 ± 0.021	0.5059 ± 0.0027	0.33 ± 0.047	0.527 ± 0.017	0.279 ± 0.014	0.33 ± 0.021	0.49577 ± 7e-05

Sequence	protein stability index (Saccharomyces cerevisiae [1])	protein stability index (Saccharomyces cerevisiae [2]; [3])	protein stability index (Saccharomyces cerevisiae [2]; [4])	protein stability index (Saccharomyces cerevisiae [2]; [5])	protein stability index (Saccharomyces cerevisiae [2]; [6])	protein stability index (Saccharomyces cerevisiae [2]; [7])	protein stability index (Saccharomyces cerevisiae [2]; [8])	protein stability index (Saccharomyces cerevisiae [2]; [9])
EWFFCLGLFRFH	0.369 ± 0.045	0.567 ± 0.022	0.6045 ± 0.0057	0.472 ± 0.044	0.6152 ± 0.0061	0.208 ± 0.022	0.235 ± 0.025	0.433 ± 0.00045
FASVFCVVTGYV	0.48 ± 0.072	0.551 ± 0.037	0.611 ± 0.027	0.423 ± 0.018	0.597 ± 0.0062	0.406 ± 0.01	0.429 ± 0.013	0.58585 ± 7.1e-07
FCALWLCFRLMV	0.174 ± 0.037	0.35 ± 0.024	0.403 ± 0.014	0.319 ± 0.028	0.476 ± 0.03	0.14 ± 0.014	0.149 ± 0.017	0.265 ± 0.028
FCCLVLDLEVSG	0.424 ± 0.0079	0.4314 ± 0.0037	0.548 ± 0.019	0.36 ± 0.032	0.5627 ± 0.0037	0.331 ± 0.0069	0.372 ± 0.016	0.541 ± 0.0084
FCLFMFVPLLPL	0.453 ± 0.052	0.531 ± 0.032	0.589 ± 0.013	0.455 ± 0.036	0.5868 ± 0.0043	0.4421 ± 0.0041	0.452 ± 0.027	0.5642 ± 0.003
FCMLCVVFLGSL	0.505 ± 0.034	0.43 ± 0.067	0.532 ± 0.0092	0.39 ± 0.029	0.6206 ± 0.0047	0.358 ± 0.01	0.397 ± 0.015	0.596 ± 0.026
FCVCLAVTCCGG	0.354 ± 0.01	0.279 ± 0.023	0.42 ± 0.013	0.277 ± 0.023	0.477 ± 0.0066	0.215 ± 0.0029	0.26 ± 0.024	0.42 ± 0.011
FDWLFFFVNFVV	0.2459 ± 0.00064	0.407 ± 0.063	0.511 ± 0.033	0.475 ± 0.018	0.546 ± 0.029	0.174 ± 0.0022	0.163 ± 0.019	0.24 ± 0.0068
FFAFLRFFIFYW	0.448 ± 0.063	0.319 ± 0.058	0.266 ± 0.087	0.349 ± 0.032	0.435 ± 0.0075	0.419 ± 0.0083	0.328 ± 0.0074	0.451 ± 0.026
FFALFLPLACFC	0.429 ± 0.013	0.4689 ± 0.0012	0.4432 ± 0.004	0.38 ± 0.031	0.4899 ± 0.0037	0.353 ± 0.023	0.386 ± 0.014	0.455 ± 0.0076
FFCCFVFVLGFC	0.419 ± 0.021	0.328 ± 0.011	0.443 ± 0.01	0.312 ± 0.028	0.4401 ± 0.0036	0.283 ± 0.014	0.291 ± 0.019	0.393 ± 0.0054
FFCSILLGIILL	0.399 ± 0.04	0.385 ± 0.014	0.401 ± 0.0091	0.364 ± 0.029	0.507 ± 0.016	0.47 ± 0.0098	0.37 ± 0.033	0.451 ± 0.011
FFFCFFIFCFSL	0.3698 ± 0.0032	0.327 ± 0.005	0.409 ± 0.025	0.333 ± 0.026	0.463 ± 0.013	0.335 ± 0.046	0.324 ± 0.015	0.396 ± 0.036
FFFFSFFLATFS	0.305 ± 0.026	0.227 ± 0.018	0.36 ± 0.016	0.288 ± 0.055	0.418 ± 0.013	0.264 ± 0.029	0.26 ± 0.036	0.39074 ± 0.00019
FFGVFIFPVSCR	0.291 ± 0.022	0.203 ± 0.013	0.226 ± 0.019	0.204 ± 0.028	0.292 ± 0.01	0.174 ± 0.0071	0.209 ± 0.032	0.291 ± 0.028
FFGVLFRVSLFF	0.266 ± 0.035	0.12 ± 0.035	0.22 ± 0.011	0.191 ± 0.022	0.3075 ± 0.0027	0.175 ± 0.0079	0.173 ± 0.017	0.262 ± 0.0057
FFLLLLRPPLVM	0.374 ± 0.051	0.34 ± 0.035	0.363 ± 0.0046	0.275 ± 0.035	0.4464 ± 0.0041	0.276 ± 0.0029	0.267 ± 0.03	0.41225 ± 0.0001
FFRFCFLLLASS	0.25 ± 0.061	0.303 ± 0.011	0.335 ± 0.01	0.221 ± 0.024	0.4 ± 0.01	0.197 ± 0.019	0.188 ± 0.013	0.355 ± 0.011
FFSRSLGAGVAA	0.644 ± 0.21	0.71 ± 0.037	0.747 ± 0.044	0.602 ± 0.028	0.715 ± 0.041	0.5962 ± 0.0036	0.604 ± 0.013	0.724 ± 0.033
